What was measured:
Histone H3 = assay: Methylation assay: methylating activity of purified hCARM1; type: biochemical; conditions: increasing amounts of purified enzyme, constant recombinant Histone H3 (FIG. 2)
Description: Methylation assay protocol: Reactions were performed in IX methylation buffer containing 20 mM Tris.HCl, pH 8.0, 200 mM NaCl and 0.4 mM EDTA. Reactions were assembled with 2.5 ug of Histone H3 and increasing amounts of hCARM1 (0.25 ug, 0.5 ug, 1.25 ug, 2.5 ug, 3.75 ug, 5 ug, or 7.5 ug). A mock reaction where hCARM1 was omitted was used as the negative control. Reactions were incubated at 30° C. for 1 hr. prior to loading on a 10-20% gradient SDS-PAGE. The gel was fixed, dried and exposed to film.
A methylation reaction was performed in order to evaluate whether the cloned full-length hCARM1 had methylating activity. Mouse CARM1 has been previously shown to specifically methylate Histone H3 in vitro and in vivo.

[1] = tested on: ER dependent promoter reporter in T47D cells; assay: ER dependent luciferase reporter assay in transfected T47D cells; type: cell-based, human; conditions: hCARM1 co-transfected with GRIP-1 and ER, compared to GRIP-1 and ER alone
Description: Transfection protocol: Cells were plated in 12 well-dishes and allowed to adhere and grow overnight such that they were 80% confluent at the time of transfection. Tranfections were performed in triplicate using Lipofectamine 2000 (Gibco) and OptiMEM media. Total amount of DNA transfected was held constant within experiments. Six hrs. post transfection the Lipofectamine-DNA mix was removed and replaced with fresh media containing 10% serum. Hormone (dihydrotestosterone or estradiol) was added at this time and reporter activation measured after 24 hr.
Mouse CARM1 has been implicated as a coactivator of the androgen and estrogen receptor mediated signaling pathways along with the well-known steroid coactivator GRIP-1. The contribution, if any, of the human clone to these pathways was investigated. […] Thus, antagonizing endogenous CARM1 is deleterious to hormone dependent activation by endogeous ER.

B1: hCARM1: cloned full-length human CARM1, produced in and purified from baculovirus infected insect cells; transfected as cDNA in cell assays (protein, UniProt Q86X55 1-608, looked up)
chain: MAAAAAAVGPGAGGAGSAVPGGAGPCATVSVFPGARLLTIGDANGEIQRHAEQQALRLEVRAGPDSAGIALYSHEDVCVFKCSVSRETECSRVGKQSFIITLGCNSVLIQFATPNDFCSFYNILKTCRGHTLERSVFSERTEESSAVQYFQFYGYLSQQQNMMQDYVRTGTYQRAILQNHTDFKDKIVLDVGCGSGILSFFAAQAGARKIYAVEASTMAQHAEVLVKSNNLTDRIVVIPGKVEEVSLPEQVDIIISEPMGYMLFNERMLESYLHAKKYLKPSGNMFPTIGDVHLAPFTDEQLYMEQFTKANFWYQPSFHGVDLSALRGAAVDEYFRQPVVDTFDIRILMAKSVKYTVNFLEAKEGDLHRIEIPFKFHMLHSGLVHGLAFWFDVAFIGSIMTVWLSTAPTEPLTHWYQVRCLFQSPLFAKAGDTLSGTCLLIANKRQSYDISIVAQVDQTGSKSSNLLDLKNPFFRYTGTTPSPPPGSHYTSPSENMWNTGSTYNLSSGMAVAGMPTAYDLSSVIASGSSVGHNNLIPLANTGIVNHTHSRMGSIMSTGIVQGSSGAQGSGGGSTSAHYAVNSQFTMGGPAISMASPMSIPTNTMHYGS
modifications: full-length
notes: cloned full-length human CARM1, produced in and purified from baculovirus infected insect cells; transfected as cDNA in cell assays
- methylation of Histone H3 by hCARM1 (Histone H3): methylates Histone H3 efficiently
- estradiol mediated induction of ER dependent luciferase reporter [1]: concentration dependent increase

Reference: patent US20050196753A1, “Human coactivator-associated arginine methyltransferase 1 (hCARM1)” (priority 2002, published 2005)
